Experimental findings from patent US20110014200A1 are described below.

Test [1] has as its target gain-of-function TSHR mutant A623I (human) (UniProt P16473). The experiment in a line: cell-based or functional assay.
Test [2] addresses gain-of-function TSHR mutant I486F (human) (UniProt P16473). The experiment in a line: cell-based or functional assay.
The target in test [3] is gain-of-function TSHR mutant I568T (human) (UniProt P16473). The experiment in a line: cell-based or functional assay.
Test [4] has as its target gain-of-function TSHR mutant S281I (human) (UniProt P16473). The experiment in a line: cell-based or functional assay.
The target in test [5] is wild-type human thyrotropin receptor (TSHR) (human) (UniProt P16473). The experiment in a line: cell-based or functional assay.
For test [6] the target is unchanged. The experiment in a line: inhibition of 125I-TSH binding to monolayers of cells expressing human TSHR.

“monoclonal antibody CS-17 (produced by hybridoma CS-17, ATCC accession number PTA-8174)”: the CS-17 concentration producing half-maximal inhibition (IC50) of constitutive cAMP in test [1], in test [2], in test [3], in test [4] and in test [5] was 1 µg/mL in each case. This substance also registered a half maximal inhibitory concentration for TSHR constitutive activity (intracellular cAMP) in test [5] of 6.7 nM. Besides, the inverse agonist activity at 10 µg/ml (percent) in test [5] lay within 60 to 90%. The reduction of constitutive activity at 10 µg/ml (percent) in test [5] is over 60%. Besides, the percent suppression of TSH binding at 10 µg/ml in test [6] came to 35%.
